# The DeepSol protein solubility set
# Experiment: soluble on expression in E. coli; label from the status in PepcDB or PDB records
row,Sequence,soluble on expression in E. coli
1,MVVGDFPIETDTIVIGAGPGGYVAAIRAAQLGQKVTIVEKGNLGGVCLNVGCIPSKALLHASHRFVEAQHSENLGVIAESVSLNFQKVQEFKSSVVNKLTGGVEGLLKGNKVNIVKGEAYFVDNNSLRVMDEKSAQTYNFKNAIIATGSRPIEIPNFKFGKRVIDSTGALNLQEVPGKLVVVGGGYIGSELGTAFANFGSEVTILEGAKDILGGFEKQMTQPVKKGMKEKGVEIVTEAMAKSAEETDNGVKVTYEAKGEEKTIEADYVLVTVGRRPNTDELGLEELGVKFADRGLLEVDKQSRTSISNIYAIGDIVPGLPLAHKASYEAKVAAEAIDGQAAEVDYIGMPAVCFTEPELATVGYSEAQAKEEGLAIKASKFPYAANGRALSLDDTNGFVKLITLKEDDTLIGAQVVGTGASDIISELGLAIEAGMNAEDIALTIHAHPTLGEMTMEAAEKAIGYPIHTM,not soluble
2,MVVKEILRLLFLLAMYELGKYVTEQVYIMMTANDDVEAPSDYEKIRAEVSWLEHHHHHH,not soluble
3,MVVNKRLILILLFILNTAKSDELSWKGNDFTLYARQMPLAEVLHLLSENYDTAITISPLITATFSGKIPPGPPVDILNNLAAQYDLLTWFDGSMLYVYPASLLKHQVITFNILSTGRFIHYLRSQNILSSPGCEVKEITGTKAVEVSGVPSCLTRISQLASVLDNALIKRKDSAVSVSIYTLKYATAMDTQYQYRDQSVVVPGVVSVLREMSKTSVPTSSTNNGSPATQALPMFAADPRQNAVIVRDYAANMAGYRKLITELDQRQQMIEISVKIIDVNAGDINQLGIDWGTAVSLGGKKIAFNTGLNDGGASGFSTVISDTSNFMVRLNALEKSSQAYVLSQPSVVTLNNIQAVLDKNITFYTKLQGEKVAKLESITTGSLLRVTPRLLNDNGTQKIMLNLNIQDGQQSDTQSETDPLPEVQNSEIASQATLLAGQSLLLGGFKQGKQIHSQNKIPLLGDIPVVGHLFRNDTTQVHSVIRLFLIKASVVNNGISHGLEHHHHHH,soluble
4,MVVNVFISAVTTDTLSRKEAVAWVNNLLKSHFTKVEEMASGAAYCQLTHLLFNAINLKKVKFNPRSEPDVLNNWKVLTTTWKDLGIDKPVDVEKMKKAKFQDNMEFLQWFYKFYNANLTTEPEEYDAVGARFGEDLPALKGSTGSRPVAAPARPVAAAPPKPRPAAPAVAAPAVKASVPPTVRNGTRPAPATSAGTRRADPSASEELLKQEIEKHKAASDEWETTAKEMETEREYYYSILQRVESLANEAEESGSSTVDVAALKTILYAGNEDTEQVDEIENEHLVESLQANLDDTETF,soluble
5,MVVSMRWLLSVFTFLCMKYSEASNPRAIILQNFMDSNKEAVKNLKDDNVLSKALVKTFGLNSSSSSSLSDESSSNLVLMDSTTPCDSGWTKSTVNGMCYKIATADTTWYAAEDWCYSQRYGSHLTSVHSEAEAQWIAATYVSTGWFPYMDNWLGLRRSCDNSTYIWTDGTPVDYLWWQPGYPGSGDPEKSCVTIWVTSLLKLNPGYVQGQFDDIWDCGTNLATPTCRYDPTSTAPHIKYDTSYTCASTTTVSTTSTVTTTKPTTTTTTPTTTTTTPTTTTTESTTTETTSTTTPTTTTTAPTTTTTASTTTFKTTTITTTTQTTTPTTTATTTKPTTTTPTTTRTPVDCSAKCDPFWVSYSDGCYAKIQGTATFETAKLGCQSVGGEMAVITDAAMNEAIRLAFSTNIDSSVSNQAWIGTSSYSNWAPGKPDKAQGVAYSSYCNVIALSVVNKGKDFGFSRGVWTDYPCSLKQEFAICKRI,not soluble
6,MVVYGADVICASCVNAPTSKDIYDWLQPLLKRKYPNISFKYTYIDITKDNDNLTDHDLQFIERIEQDELFYPLITMNDEYVADGYIQTKQITRFIDQKLVNE,soluble
7,MVWFFFSCDEYNEEILKTNSGYWKETVSNTPIIGKWITSNGVKIGEKQVLVFQSYENINGSKSDWVMHVYQPTFLPPNQVIFRIYDV,soluble
8,MVYLKGQIRKALSGFYYVYADGETYQTRARGNFRNRKITPLVGDEVLFESDNLTDGYVLEILPRRNELVRPPVANVDLGVVVMSMVSPNFSFNLLDRFLVSLEYKDIEPVIYLTKVDLLDEPQRQQVTEIKQIYEALGYAVIASEDVEATKELERFFPERLTVFMGQSGAGKSTLLNQISPELQLATAEISQSLGRGKHTTRHVELIPLYDGLVADTPGFSAIDFLEMEAVELPKQFPEFVAAASHCKFRECMHHKEPGCEVKRQVEAGTIATSRYENYLQFLMEIENRRPVYKKKS,not soluble
9,MWDSENIEELSLVIGIGLDKPDDENLELTQQILVPKIISAKEGSSSDPTQLSITKGKTVHQMMRTSALKHKPTFSQHLRLILLSKSVIADQIGMDAIINQFVRDNGTRRSSYVFITNGRTKDIFNMNDEGEPASNVIYDLTENNKVTIRTMEPVTLGEISEHLTSDDSFLIPHVGKENGKLAINGASIIKNKLWHRDLTPIEVQNISLFSGTVEGGVIDLKRDGHLFSYEVYSSNRKIKTAYKDGKFKFTVTRNIEGRLSEDWNPNEDSFKDSYIKSIEKTVEKRVHETVTSFITEKLQKEIKADVTGLGNEVRIHYPQKWKKISRKWDDDYFSNAEIDYRVNVIVRDFGTKGANKLEHHHHHH,not soluble
10,MWDTSKDYRLLVAEKSVELFIRTIEGAKFRGQWDKKRSIQLAKEMIPDIQALRYSYIDPEELVDTPQMKDLKEKAKGIIEALGGEDWHHKFLSQASREDREKVEEQVARIKFFLNTILNLDRRLKLGKINDPVIAVDIVVGEVMSVGKHPSADRLLVTNVNIGERAVTVVTNDLTVKEGNRVAVALLPPRNFFGIVSEGMFLGAGEGVLKNVKGEIGGLPKGIPLEALNETRNAVEAFLKG,soluble
11,MWKIMRSWKCGGMRWAHRQRPSHELLSQLSFDQHYKIRSNIELLIQDYASKPIAPLNYEYFLQYRPPLTKKEEYMLTIKTINLLLSLTCKRLNAIQRLPYNAVINPHIERTNSLYLKSLQTLLSIAYPYELHNPPKIQAKFTELLDDHEDAIVVLAKGLQEIQSCYPKFQISQFLNFHLKERITMKLLVTHYLSLMAQNKGDTNKRMIGILHRDLPIAQLIKHVSDYVNDICFVKFNTQRTPVLIHPPSQDITFTCIPPILEYIMTEVFKNAFEAQIALGKEHMPIEINLLKPDDDELYLRIRDHGGGITPEVEALMFNYSYSTHTQQSADSESTDLPGEQINNVSGMGFGLPMCKTYLELFGGKIDVQSLLGWGTDVYIKLKGPSKTALLSKK,soluble
12,MWQRIRLLQTLVSQKGAATAAAGAASSSPTAAAAAATTAAPPSPAPSVAADNERSFLRNLIPMRVYSSGPPSIYLRHAFLNQDRLIRRFLGALEAVPLPSLPRLLLAEGFQRMLEGDVPQRELRELFEDAEVECRKMLLHMDVSKSGHRRYHDSHADPRDQEMWHAVRHDPLRRLLAHELRAACSHYARLMGVSSSPYVPAAVIVRTIIASDVRTDNFLVKMTLAFERHPRNVETGEPVGEAMPPVVEELMKELLLLERDAFGCFRFDPRGDNHHLVHSLKLADITKTPRSFSVMRDPLMKRYGNYCVECEEVHKGRWNQYKVHCGPEDHRIDPALPLFESVVATDPITGGALNMLVHYDEPICLRHKHSLREEKGNFGHTEVFELAMDVTNRTFWERYFLDR,soluble
13,MYDYGTFAFASKADVLDQAKAFWNPDKTQFWTDSGVDLVIDRREGYFLWDMSGRRLIDLHLNGGTYNIGHRNPEVMQAISEGMAHFDVGNHHFPSVARTALAKRLVETAPASIKKVAFGSGGGEAIDIALKSARHGTQRRKIVSVIKAYHGHTGLAVATGDDRFAKLFLADRPDEFIQVPFGDIGAMEAALAGGDVAAVIMETIPATYGFPLPPPGYLEAVKALTERHGTLYIADEVQTGLMRTGELWGITKHGIDPDIIVTGKGLSGGMYPISAVLLGERAARWLDQDGFGHISTFGGAELGCVAAIKTLEICTRPEVRSMVHYIADIFDTGLRRIQADYPDWFVGIRQNGVVIGLEFDHPEGAKFVMRELYENGVWAIFSTLDPRVLQFKPGLLLSRELCEDVLDRLEVAVGRARATVTGRRNG,not soluble
14,MYFIAGMFDGKEKVNREQPPMPTTDGVEYPRAASWAAGNCANVLNDDKGKQLFRVFLFQSLAEENLAFLEAMEKLKKMKISDEKVAYAKEILETYQGSINLSSSSMKSLRNAVASETLDMEEFAPAIKEVRRLLENDQFPRFRRSELYLEYLEELLPRSYAEKWAQSFEGLLGNHVGRHHFRIFLRSIHAEENLRFWEAVVEFRSSRHKANAMNNLGKVILSTYLAEGTTNEVFLPFGVRQVIERRIQDNQIDITLFDEAIKHVEQVLRNDPYVRFLQSSQYIDLLSKLK,not soluble
15,MYGKLNDLLEDLQEVLKHVNQHWQGGQKNMNKVDHHLQNVIEDIHDFMQGGGSGGKLQEMMKEFQQVLDEIKQQLQGGDNSLHNVHENIKEIFHHLEELVHR,soluble
16,MYINNKLTEDLLLGEIYYLISKTYFFIENIQKAINFAFLAKSEFEKVYNKKAYAKSLELLAEEHAKVGDLESAIAYSKQSLNVYKELEQLDKISSIEDSLGKLFFEFDNIEESFEHYNRAIKIREENTDSKLLDTLFNLCENHIKTKNMNKCIEILNEIKNKLNVSDVNRLIEYKILTFRIEVLQNNIKEAENILLDTLEIAKRNDMKKKEADISIRLGKFYLELKRDYEAAKYLDKGINNLKNLGVIKSLEHHHHHH,not soluble
17,MYKILEKKEIAMRNTWYKVYAPHVAKKVQPGQFVIVRAFPNGERIPLTPVMWDREEGWIVLIVFTRGKTTMRMAVELKEGDSLLNVAGPLGTPVPMEKFGKILAIGAYTGIVEVYPIAKAWQEIGNDVTTLHVTFEPMVILKEELEKAVTRHIVEPVPLNPNQDFLANMKNVSQRLKEKVRELLESEDWDLVFMVGPVGDQKQVFEVVKEYGVPMKVDLHPIMVDGTGMCGACRVTVGGEVKFACVDGPEFDAYQVDWDELIHRVGFYAKLEKLALEKYMEELKAKGVILEHHHHHH,not soluble
18,MYKPTERNAQNSLAMMNYAYDTSLQETMILTEAFHTDRVICDNGSLYKFIWVQEGKLTLIVDHVEIEMEQDEIISVSNLHRTEFKNVSGRYLALLFNENFYGIYKHEKEVSCSGVLFNGTSGIVHLRLPIADSELLHEVVDRMVTEYILRDNLQGEMLRLLLKRFIILCTRLARKQLSGFPVNEKGFDIIQRYYVLVDNHFKEKKQVQAYAALLHRSPKTLSNLFAAYGMPSPLKIIQERVVTEAKRLLLHTSHSIKEISVILGFESVGTFSRFFKNMTGENTSAYRKRLQ,not soluble
19,MYKVSHGLSMVHEDEMGVNAPMDHQRVISKLNVGLGKLFYYDKAISLEPLPETMLDEGRTSRYDGPPTPDLILYDKARDHIPVIIEVCHTRGLKGDLQKVVSLIEDFPYDILEGFVYNYRTEHWFRYRKGDNGIATETSFSEILQLDLNQFL,not soluble
20,MYLKRPIWSDGASATPENPSESETGEESDAASMVVEELVTSLNTQRLYRELTLSLRTGLRDACAEFSFLRIRGLRSLLKTLRTVADSDSIIRLFSHTQTISDLQLVPVLFQHSLKEAEDDKVTSLDHIFSVEPMKITSPSTDAEVAVALRVLEGCCLLHPQSTVLAHKHGAVRVMMNVLSTRGVLEQGACLDALISVLLDSSANQVDFGACNGIEEVAMLMRDKQADENLSIYTIKIAVNEDSFPFCLFWLRCGEFLLLLVGHVNGKDRSPIASVNEDIRRLLGEKSASLIWAASQFGSTGDPEQRITALHIQAGRVLESLDLY,soluble
21,MYMKHIENGTRIEGEYIKNKVIQYNMSILTDEVKQPMEEVSLVVKNEEGKIFGGVTGTMYFYHLHIDFLWVDESVRHDGYGSQLLHEIEGIAKEKGCRLILLDSFSFQAPEFYKKHGYREYGVVEDHPKGHSQHFFEKRL,soluble
